In US20200390902A1, “Antibody-Drug Conjugates Targeted at Human Aspartyl-(Asparaginyl)-B-Hydroxylase (HAAH)” (Panacea Pharmaceuticals, Inc., priority 2017, published 2020):

T1: HAAH catalytic domain (human, UniProt Q12797)
T1 sequence: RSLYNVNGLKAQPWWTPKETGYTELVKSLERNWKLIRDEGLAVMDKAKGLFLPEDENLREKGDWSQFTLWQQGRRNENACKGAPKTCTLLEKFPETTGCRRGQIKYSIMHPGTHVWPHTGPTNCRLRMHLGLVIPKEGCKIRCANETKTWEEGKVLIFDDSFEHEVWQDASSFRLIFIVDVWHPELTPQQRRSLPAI

T2: Human aspartyl (asparaginyl) β-hydroxylase (HAAH) (human, UniProt Q12797)
T2 sequence: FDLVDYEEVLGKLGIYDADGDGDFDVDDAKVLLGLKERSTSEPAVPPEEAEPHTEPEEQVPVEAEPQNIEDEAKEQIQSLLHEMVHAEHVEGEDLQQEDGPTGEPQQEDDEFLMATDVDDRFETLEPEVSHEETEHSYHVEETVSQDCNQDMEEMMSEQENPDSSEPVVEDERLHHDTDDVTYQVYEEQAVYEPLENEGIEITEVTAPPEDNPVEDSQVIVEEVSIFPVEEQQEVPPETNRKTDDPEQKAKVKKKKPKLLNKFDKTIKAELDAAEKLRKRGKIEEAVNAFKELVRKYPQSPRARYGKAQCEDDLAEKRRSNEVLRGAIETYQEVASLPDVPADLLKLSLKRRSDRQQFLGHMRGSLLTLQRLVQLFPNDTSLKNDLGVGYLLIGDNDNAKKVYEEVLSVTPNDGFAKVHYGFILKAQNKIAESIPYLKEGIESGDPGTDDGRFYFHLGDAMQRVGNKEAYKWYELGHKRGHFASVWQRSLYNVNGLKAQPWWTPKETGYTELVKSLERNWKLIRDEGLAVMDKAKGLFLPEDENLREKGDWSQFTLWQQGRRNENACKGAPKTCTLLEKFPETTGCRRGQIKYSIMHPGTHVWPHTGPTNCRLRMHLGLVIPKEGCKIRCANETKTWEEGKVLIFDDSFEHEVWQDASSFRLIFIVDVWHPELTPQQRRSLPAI


Experiments:
HAAH catalytic domain [1] = molecular target: T1, HAAH catalytic domain; assay: ELISA on plates coated with HAAH catalytic domain
Description: The catalytic domain of HAAH (HAAH-cat) is exposed at the surface of HAAH-expressing cancer cells. The binding of SNS622-MC-DM1 at different drug-antibody ratio (DAR) and pH to HAAH-cat was measured using IgG1λ as control. The plates were coated with HAAH by treating with […] HAAH catalytic domain overnight. Following blocking with 1% Non-Fat Dry Milk in PBS for one hour, the plates were incubated for 45 minutes at 37° C. with 11.1 mg/ml IgG1λ; 9.6 mg/ml SNS622; 4.8 mg/ml SNS622-MC-DM1 at DAR 2.5, pH 7.0; 5.9 mg/ml SNS622-MC-DM1 at DAR 2.5, pH8.0; 6.1 mg/ml SNS622-DM1 at DAR 5.0, pH 7.0; 5.7 mg/ml SNS622-MC-DM1 at DAR 5.0, pH8.0; 4.1 mg/ml SNS622-DM1 at DAR 10.0, pH7.0; or 4.4 mg/ml SNS622-MC-DM1 at DAR 10.0, pH8.0. Following 5 PBS rinses the plates were incubated with 1:100 goat anti-human IgG (8)-HRP for 30 minutes at 37° C., Following five PBS rinses TMB substrate was added, and after a 15-minute incubation at room temperature, Stop solution was added to terminate the reactions. The plates were read at 450 nm using a 96-well plate reader (ELx808, BioTek). The binding results are shown below in Table VI

HAAH catalytic domain [2] = molecular target: T1, HAAH catalytic domain; assay: ELISA on plates coated with HAAH catalytic domain; [Protein] 11.1 mg/ml
H460 lysate = assay: ELISA on plates coated with H460 lysate, percent of loading amount bound
[3] = molecular target: Human aspartyl (asparaginyl) β-hydroxylase (HAAH) (human) (UniProt Q12797)
[4] = molecular target: Human aspartyl (asparaginyl) β-hydroxylase (HAAH) (human) (UniProt Q12797); remark: listed apart in the source
[5] = molecular target: Human aspartyl (asparaginyl) β-hydroxylase (HAAH) (human) (UniProt Q12797); remark: listed apart in the source
[6] = molecular target: Human aspartyl (asparaginyl) β-hydroxylase (HAAH) (human) (UniProt Q12797); remark: listed apart in the source
[7] = molecular target: T2, Human aspartyl (asparaginyl) …; assay: immunoassay on fixed H460 cells; printed as 'binding affinities'
[8] = molecular target: Human aspartyl (asparaginyl) β-hydroxylase (HAAH) (human) (UniProt Q12797); remark: listed apart in the source

Row | Molecule | % Binding (HAAH catalytic domain [1]) [%] | Percent binding (H460 lysate) [%] | EC50, H460 cell viability, MTS assay, 24 h [4] [nM] | Kd [7] [nM] | other results
1 | IgG1λ (non-specific monoclonal antibody) | 0.01 | < 0.002 |  |  | [Average]* (HAAH catalytic domain [2]): < 0.001 mg/mL
2 | IgG1λ-MC-DM1 (non-specific ADC) (antibody) |  | < 0.002 |  |  | 
3 | SNS622-MC-DM1 (antibody, V domains shown, MC-DM1 (maleimidocaproyl-mertansine) on cysteine thiols of reduced disulfide bonds, positions not given; MC-DM1 (maleimidocaproyl-mertansine) on cysteine thiols of reduced disulfide bonds, positions not given) VH: QVQLQQSGPGLVKPSQTLSLTCAISGDSVSSNSAAWNWIRQSPSRGLEWLGRTYYRSKWYNDYAVSVKSRITINPDTSKNQFSLQLNSVTPEDTAVYYCARTGYSSSWVVNFDYWGQGTLVTVSS VL: QPVLTQSPSASGTPGQRVTISCSGSSSNIGSNYVYWYQQLPGTAPKLLIYKNNQRPSGVPDRFSGSKSGTAASLAISGLQSEDEADYYCAAWDDSLRGYVFGTGTKLTVLG |  | 107 | 15 | ~0.1 | IC50 of MTS, H460 cells, 72 h [3]: 64 nM; LC50 of LDH, H460 cells, 72 h [3]: 36 nM; LDH release, H460 cells, 32 nM, 72 h (× (over untreated H460 cells)) [5]: 39; MTS assay, MIA-PaCa-2 ASPH cells, 10, 20 or 50 nM, 48 h (% reduction of relative absorbance) [6]: 16
4 | SNS622-MC-vc-PAB-MMAE (antibody, V domains shown, MC-vc-PAB-MMAE on cysteine thiols of reduced disulfide bonds, positions not given; reaction DAR 10:1, final DAR 6.31; MC-vc-PAB-MMAE on cysteine thiols of reduced disulfide bonds, positions not given) VH: QVQLQQSGPGLVKPSQTLSLTCAISGDSVSSNSAAWNWIRQSPSRGLEWLGRTYYRSKWYNDYAVSVKSRITINPDTSKNQFSLQLNSVTPEDTAVYYCARTGYSSSWVVNFDYWGQGTLVTVSS VL: QPVLTQSPSASGTPGQRVTISCSGSSSNIGSNYVYWYQQLPGTAPKLLIYKNNQRPSGVPDRFSGSKSGTAASLAISGLQSEDEADYYCAAWDDSLRGYVFGTGTKLTVLG |  |  | 60 | ~0.2 | IC50, MOLM-14 cell viability, MTS assay, 24 h [8]: 50 nM
5 | SNS622-MC-PEG4-vc-PAB-DMEA-DUO (antibody, V domains shown, MC-PEG4-vc-PAB-DMEA-duocarmycin on cysteine thiols of reduced disulfide bonds, positions not given; reaction DAR 2.2:1, final DAR 1.92:1; MC-PEG4-vc-PAB-DMEA-duocarmycin on cysteine thiols of reduced disulfide bonds, positions not given) VH: QVQLQQSGPGLVKPSQTLSLTCAISGDSVSSNSAAWNWIRQSPSRGLEWLGRTYYRSKWYNDYAVSVKSRITINPDTSKNQFSLQLNSVTPEDTAVYYCARTGYSSSWVVNFDYWGQGTLVTVSS VL: QPVLTQSPSASGTPGQRVTISCSGSSSNIGSNYVYWYQQLPGTAPKLLIYKNNQRPSGVPDRFSGSKSGTAASLAISGLQSEDEADYYCAAWDDSLRGYVFGTGTKLTVLG |  |  | 300 | ~0.5 | IC50, MOLM-14 cell viability, MTS assay, 24 h [8]: 60 nM
6 | SNS622 (antibody, V domains shown) VH: QVQLQQSGPGLVKPSQTLSLTCAISGDSVSSNSAAWNWIRQSPSRGLEWLGRTYYRSKWYNDYAVSVKSRITINPDTSKNQFSLQLNSVTPEDTAVYYCARTGYSSSWVVNFDYWGQGTLVTVSS VL: QPVLTQSPSASGTPGQRVTISCSGSSSNIGSNYVYWYQQLPGTAPKLLIYKNNQRPSGVPDRFSGSKSGTAASLAISGLQSEDEADYYCAAWDDSLRGYVFGTGTKLTVLG | 97.6 | 92 |  |  | 
7 | SNS622-DM1A1 (antibody, V domains shown, MC-DM1 on cysteine thiols of reduced disulfide bonds, positions not given; reaction DAR 2.5:1, pH 7, final DAR 2.00; MC-DM1 on cysteine thiols of reduced disulfide bonds, positions not given) VH: QVQLQQSGPGLVKPSQTLSLTCAISGDSVSSNSAAWNWIRQSPSRGLEWLGRTYYRSKWYNDYAVSVKSRITINPDTSKNQFSLQLNSVTPEDTAVYYCARTGYSSSWVVNFDYWGQGTLVTVSS VL: QPVLTQSPSASGTPGQRVTISCSGSSSNIGSNYVYWYQQLPGTAPKLLIYKNNQRPSGVPDRFSGSKSGTAASLAISGLQSEDEADYYCAAWDDSLRGYVFGTGTKLTVLG | 75.1 |  |  |  | 
